Results as given in publication PMC11617674, “The activity of the ribonucleotide monophosphatase UmpH is controlled by interaction with the GlnK signaling protein in Escherichia coli” (The Journal of Biological Chemistry, 2024).

Molecular target: T1, UmpH (ribonucleotide monophosphatase), untagged recombinant (E. coli, UniProt P0AF24 1-250)
T1 construct: UmpH (NagD), ribonucleotide monophosphatase of E. coli; also called NagD; untagged UmpH; source: E. coli BL21 (λDE3), pET29a, purified (ammonium sulfate, gel filtration)
T1 sequence (looked up): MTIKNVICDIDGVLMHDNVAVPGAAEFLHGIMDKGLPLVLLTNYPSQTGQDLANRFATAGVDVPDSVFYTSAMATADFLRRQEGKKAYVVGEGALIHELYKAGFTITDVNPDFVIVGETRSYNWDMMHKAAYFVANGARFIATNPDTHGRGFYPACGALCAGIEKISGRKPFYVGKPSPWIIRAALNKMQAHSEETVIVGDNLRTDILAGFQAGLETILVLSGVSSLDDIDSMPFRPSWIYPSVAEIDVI
Test: pull-down; His-PII on Ni2+ magnetic beads, untagged UmpH; 50 mM Tris-HCl pH 8.0, 0.1 M NaCl, 5 mM MgCl2, 10% glycerol, 20 mM imidazole; room temperature; without nucleotides or with ATP or ADP (effectors as indicated); SDS-PAGE, Coomassie
Details: both partners purified

B1: His-GlnB from Azospirillum brasilense (natural protein, UniProt P21193 1-112, looked up)
chain: MKKIEAIIKPFKLDEVKEALHEVGIKGITVTEAKGFGRQKGHTELYRGAEYVVDFLPKVKIEVVMEDSLVERAIEAIQQAAHTGRIGDGKIFVTPVEEVVRIRTGEKGGDAI
notes: GlnB, PII protein of Azospirillum brasilense; also called GlnBAb; His-AbPII; not shown: His tag, N-terminal, kept
Does B1 bind?
Result: binds
